The text below walks through data of the supplement of paper PMC10567573.

B1: ZER1 (parent)
chain: KEMARKVIEHCSNFKEENMDTSR
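Also: lentivirally expressed fusions sorted by FACS into six bins by GFP to DsRed ratio, PSI derived from sequencing read proportions per bin multiplied by bin number.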

In the data set the parent is B1. As to the kind of experiment: protein stability index of a GFP-peptide fusion (GPS, HEK-293T) (PSI 1-6); higher = more stable. As to conditions: c terminus: native.
KEMARKVIEHCSNFKPENMDTSR: the protein stability index was 3.31.
Regarding KEMARKVIEHCSNFKVENMDTSR, the protein stability index was 3.43.
Under KEMARKVIEHCSNFKSENMDTSR stands 4.19; under KEMARKVIEHCSNFKNENMDTSR, 3.19; under KEMARKVIEHCSNFKAENMDTSR, 2.9.
For the variant KEMARKVIWHCSNFKEENMDTSR, the protein stability index was determined as 1.55.
For the variant KEMARKAIEHCSNFKEENMDTSR, the protein stability index was determined as 4.87.
For the variant KEMARKTIEHCSNFKEENMDTSR, the protein stability index was found to be 4.89.
For the variant KEMARKRIEHCSNFKEENMDTSR, the protein stability index is 4.65.
With KEMARKVIEHCSNFKEENDDTSR, the protein stability index stood at 4.46.
Under KEMARKVIEHCSNFKEENYDTSR stands 3.71; under KEMARKVIEHCSNFKEENNDTSR, 4.29.
For KEMARKVIEHCSNFKEENKDTSR, the protein stability index is 2.81.
The value for KEMARKVIEHCSNFKEENWDTSR was 3.64.
Under KEMARKVIEHCSNFKEENMDWSR stands 2.3.
Under KEMARKVIEHCSNFKEENMDASR stands 4.09; under KEMARKVIEHCSNFKEENMDGSR, 5.12.
In the case of KEMARKVIEHCSNFKEENMDESR, the protein stability index was 4.98.
For the variant KEMARKVIEHCSNFKEENMDMSR, the protein stability index stood at 4.41.
Under KEMARKVIEHCSNFKEERMDTSR stands 2.
KEMARKVIEHCSNFKEEAMDTSR: the protein stability index stood at 3.34.
For the variant KEMARKVIEHCSNFKEEPMDTSR, the protein stability index amounted to 3.9.
The value for KEMARKVIEHCSNFKEELMDTSR was 2.91; that for KEMKRKVIEHCSNFKEENMDTSR was 4.29; that for KEMMRKVIEHCSNFKEENMDTSR was 2.48.
Under KEMARKVIEHDSNFKEENMDTSR stands 4.79; under KEMARKVIEHESNFKEENMDTSR, 4.45; under KEMARKVIEHNSNFKEENMDTSR, 4.26.
Regarding KEMARKVIEHWSNFKEENMDTSR, the protein stability index was determined as 2.19.
The value for KEMARKVIEHQSNFKEENMDTSR was 4.43; that for KEMARKVIEHCSNFKEYNMDTSR was 2.41.
As to KEMARKVIEHCSNFKELNMDTSR, the protein stability index amounted to 2.35.
With KEMARKVIEHCSNFKETNMDTSR, the protein stability index was 3.45.
Under KEMARKVIEHCSNFKEANMDTSR stands 2.98; under KEMARKVIEHCSNFKEENMTTSR, 2.99; under KEMARKVIEHCSNFKEENMQTSR, 2.23.
Under KEMARKVIEHCSNFKEENMCTSR stands 2.08.
The value for KEMARKVIEHCSNFKEENMNTSR was 4.59.
Consider KEMARKVIEHCSNFKEENMVTSR, for which the protein stability index came out at 1.51.
The value for KEMARKVIEHCSNFKEENMHTSR was 2.96.
Under KEMARKVIEHCSNNKEENMDTSR stands 4.73; under KEMARKVIEHCSNVKEENMDTSR, 4.94; under KEMARKVIEHCSNSKEENMDTSR, 4.68.
On to KEMARKVIEHCSNGKEENMDTSR, for which the protein stability index amounted to 4.69.
In the case of KEMARKVIEHCSNEKEENMDTSR, the protein stability index is 4.78.
Regarding KEMARKVIEHCSNWKEENMDTSR, the protein stability index was found to be 3.33.
Under KEMARKVIEHCSNFKEENMDTSN stands 5.16; under KEMARKVIEHCSNFKEENMDTSY, 4.54.
Under KEMARKVIEHCSNFKEENMDTSG stands 5.08.
Consider KEMARKVIEHCSNFKEENMDTTR, for which the protein stability index stood at 4.42.
The value for KEMARKVIEHCSNFKEENMDTVR was 3.7; that for KEMARKVIEHCSNFKEENMDTDR was 4.07.
With KEMARKVIEHCSNFKEENMDTKR, the protein stability index stood at 2.86.
The value for KEMARKVIEHCSNFKEENMDTYR was 3.76.
Consider KEMARKVIENCSNFKEENMDTSR, for which the protein stability index was determined as 4.29.
Turning to KEMARKVIEECSNFKEENMDTSR, the protein stability index came out at 3.69.
Under KEMARKVIEGCSNFKEENMDTSR stands 4.56; under KEMARKVIEICSNFKEENMDTSR, 1.94.
Take KEMARKVIEPCSNFKEENMDTSR: the protein stability index was 5.17.
The value for KEMARKVIEFCSNFKEENMDTSR was 2.78; that for KEGARKVIEHCSNFKEENMDTSR was 4.37; that for KEQARKVIEHCSNFKEENMDTSR was 4.45.
The value for KEFARKVIEHCSNFKEENMDTSR was 1.72; that for KEMARKVCEHCSNFKEENMDTSR was 4.42; that for KEMARKVKEHCSNFKEENMDTSR was 4.91.
For KEMARKVFEHCSNFKEENMDTSR, the protein stability index came to 3.2.
Under KEMARKVHEHCSNFKEENMDTSR stands 4.29; under KEMARKVEEHCSNFKEENMDTSR, 4.87; under KEMARKVLEHCSNFKEENMDTSR, 3.13.
For KEMARKVWEHCSNFKEENMDTSR, the protein stability index turned out to be 1.86.
Turning to KEMARKVIEHCSNFTEENMDTSR, the protein stability index turned out to be 4.15.
The value for KEMARKVIEHCSNFIEENMDTSR was 3.5; that for KEMARKVIEHCSNFREENMDTSR was 2.8; that for KEMANKVIEHCSNFKEENMDTSR was 4.01.
The value for KEMAFKVIEHCSNFKEENMDTSR was 2.48; that for KEMACKVIEHCSNFKEENMDTSR was 3.76.
Consider KEMAKKVIEHCSNFKEENMDTSR, for which the protein stability index is 4.15.
The value for KEMAIKVIEHCSNFKEENMDTSR was 2.83; that for KEMARKVIEHCANFKEENMDTSR was 3.7; that for KEMARKVIEHCENFKEENMDTSR was 3.85.
Under KEMARKVIEHCRNFKEENMDTSR stands 3.25; under KEMARKVIEHCHNFKEENMDTSR, 3.66.
As for LEMARKVIEHCSNFKEENMDTSR, the protein stability index came out at 2.73.
As to FEMARKVIEHCSNFKEENMDTSR, the protein stability index worked out at 2.86.
For the variant NEMARKVIEHCSNFKEENMDTSR, the protein stability index came to 4.24.
Under YEMARKVIEHCSNFKEENMDTSR stands 3.31; under WEMARKVIEHCSNFKEENMDTSR, 2.98.
Under TEMARKVIEHCSNFKEENMDTSR stands 3.65.
CEMARKVIEHCSNFKEENMDTSR: the protein stability index amounted to 2.6.
The value for KEMARIVIEHCSNFKEENMDTSR was 2.36; that for KEMARRVIEHCSNFKEENMDTSR was 2.63.
Under KEMARCVIEHCSNFKEENMDTSR stands 2.92.
Under KEMARTVIEHCSNFKEENMDTSR stands 2.74; under KEMARLVIEHCSNFKEENMDTSR, 1.52; under KCMARKVIEHCSNFKEENMDTSR, 3.12.
Take KWMARKVIEHCSNFKEENMDTSR: the protein stability index turned out to be 2.01.
Under KNMARKVIEHCSNFKEENMDTSR stands 3.4.
